Laboratory results: US20170355766A1 (Xencor, published 2017)

Target: T1, human FcγRIIb receptor protein (R&D Systems) (human, UniProt P31994 46-217)
T1 construct: Analyte injected over antibodies captured on a protein A/G chip (Biacore); also called CD32b
T1 sequence (looked up): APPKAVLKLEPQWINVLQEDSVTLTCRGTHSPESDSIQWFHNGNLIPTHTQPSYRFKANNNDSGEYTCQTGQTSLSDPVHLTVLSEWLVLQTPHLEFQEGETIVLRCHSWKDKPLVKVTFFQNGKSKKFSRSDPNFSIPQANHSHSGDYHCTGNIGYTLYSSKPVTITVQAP
Assay: SPR (Biacore)
Experimental: Variants were screened for receptor affinity using Biacore™ technology, also referred to as Biacore herein, a surface plasmon resonance (SPR) based technology for studying biomolecular interactions in real time. SPR measurements were performed using a Biacore 3000 instrument (Biacore, Piscataway, N.J.). A protein A/G (Pierce Biotechnology) CM5 biosensor chip (Biacore) was generated using a standard primary amine coupling protocol. All measurements were performed using HBS-EP buffer (10 mM HEPES pH 7.4, 0.15 M NaCl, 3 mM EDTA, 0.005% vol/vol surfactant P20, Biacore). Antibodies at 20 nM or 50 nM in HBS-EP buffer were immobilized on the protein A/G surface and FcγRs were injected. After each cycle, the surface was regenerated by injecting glycine buffer (10 mM, pH 1.5). Data were processed by zeroing time and response before the injection of FcγR and by subtracting appropriate nonspecific signals (response of reference channel and injection of running buffer). Kinetic analyses were performed by global fitting of binding data with a 1:1 Langmuir binding model using BIAevaluation software (Biacore).

B1: L234F/G236N (antibody, human IgG1, kappa)
heavy: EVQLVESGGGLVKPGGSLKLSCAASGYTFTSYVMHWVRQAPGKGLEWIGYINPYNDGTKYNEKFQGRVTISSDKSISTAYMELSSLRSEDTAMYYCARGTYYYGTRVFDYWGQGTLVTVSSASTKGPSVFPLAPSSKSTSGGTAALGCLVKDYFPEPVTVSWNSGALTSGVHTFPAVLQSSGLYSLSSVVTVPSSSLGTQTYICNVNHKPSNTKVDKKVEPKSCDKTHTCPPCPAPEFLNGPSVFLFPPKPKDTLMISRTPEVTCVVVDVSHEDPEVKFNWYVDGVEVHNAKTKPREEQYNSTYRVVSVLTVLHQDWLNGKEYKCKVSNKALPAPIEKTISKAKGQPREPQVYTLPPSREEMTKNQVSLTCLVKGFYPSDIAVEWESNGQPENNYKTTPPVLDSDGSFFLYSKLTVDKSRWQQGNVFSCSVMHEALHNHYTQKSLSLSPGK
light: DIVMTQSPATLSLSPGERATLSCRSSKSLQNVNGNTYLYWFQQKPGQSPQLLIYRMSNLNSGVPDRFSGSGSGTEFTLTISSLEPEDFAVYYCMQHLEYPITFGAGTKLEIKRTVAAPSVFIFPPSDEQLKSGTASVVCLLNNFYPREAKVQWKVDNALQSGNSQESVTEQDSKDSTYSLSSTLTLSKADYEKHKVYACEVTHQGLSSPVTKSFNRGEC
notes: HuAM4G7 IgG1 Fc variant
binding result: no binding

B2: L235F/L328Y/I332E (antibody, human IgG1, kappa)
heavy: EVQLVESGGGLVKPGGSLKLSCAASGYTFTSYVMHWVRQAPGKGLEWIGYINPYNDGTKYNEKFQGRVTISSDKSISTAYMELSSLRSEDTAMYYCARGTYYYGTRVFDYWGQGTLVTVSSASTKGPSVFPLAPSSKSTSGGTAALGCLVKDYFPEPVTVSWNSGALTSGVHTFPAVLQSSGLYSLSSVVTVPSSSLGTQTYICNVNHKPSNTKVDKKVEPKSCDKTHTCPPCPAPELFGGPSVFLFPPKPKDTLMISRTPEVTCVVVDVSHEDPEVKFNWYVDGVEVHNAKTKPREEQYNSTYRVVSVLTVLHQDWLNGKEYKCKVSNKAYPAPEEKTISKAKGQPREPQVYTLPPSREEMTKNQVSLTCLVKGFYPSDIAVEWESNGQPENNYKTTPPVLDSDGSFFLYSKLTVDKSRWQQGNVFSCSVMHEALHNHYTQKSLSLSPGK
light: DIVMTQSPATLSLSPGERATLSCRSSKSLQNVNGNTYLYWFQQKPGQSPQLLIYRMSNLNSGVPDRFSGSGSGTEFTLTISSLEPEDFAVYYCMQHLEYPITFGAGTKLEIKRTVAAPSVFIFPPSDEQLKSGTASVVCLLNNFYPREAKVQWKVDNALQSGNSQESVTEQDSKDSTYSLSSTLTLSKADYEKHKVYACEVTHQGLSSPVTKSFNRGEC
notes: HuAM4G7 IgG1 Fc variant
Fold FcγRIIb: 3.31 fold

B3: L234W/H268D/L328Y (antibody, human IgG1, kappa)
heavy: EVQLVESGGGLVKPGGSLKLSCAASGYTFTSYVMHWVRQAPGKGLEWIGYINPYNDGTKYNEKFQGRVTISSDKSISTAYMELSSLRSEDTAMYYCARGTYYYGTRVFDYWGQGTLVTVSSASTKGPSVFPLAPSSKSTSGGTAALGCLVKDYFPEPVTVSWNSGALTSGVHTFPAVLQSSGLYSLSSVVTVPSSSLGTQTYICNVNHKPSNTKVDKKVEPKSCDKTHTCPPCPAPEWLGGPSVFLFPPKPKDTLMISRTPEVTCVVVDVSDEDPEVKFNWYVDGVEVHNAKTKPREEQYNSTYRVVSVLTVLHQDWLNGKEYKCKVSNKAYPAPIEKTISKAKGQPREPQVYTLPPSREEMTKNQVSLTCLVKGFYPSDIAVEWESNGQPENNYKTTPPVLDSDGSFFLYSKLTVDKSRWQQGNVFSCSVMHEALHNHYTQKSLSLSPGK
light: DIVMTQSPATLSLSPGERATLSCRSSKSLQNVNGNTYLYWFQQKPGQSPQLLIYRMSNLNSGVPDRFSGSGSGTEFTLTISSLEPEDFAVYYCMQHLEYPITFGAGTKLEIKRTVAAPSVFIFPPSDEQLKSGTASVVCLLNNFYPREAKVQWKVDNALQSGNSQESVTEQDSKDSTYSLSSTLTLSKADYEKHKVYACEVTHQGLSSPVTKSFNRGEC
notes: HuAM4G7 IgG1 Fc variant
Fold FcγRIIb: 5.92 fold

B4: L235W (antibody, human IgG1, kappa)
heavy: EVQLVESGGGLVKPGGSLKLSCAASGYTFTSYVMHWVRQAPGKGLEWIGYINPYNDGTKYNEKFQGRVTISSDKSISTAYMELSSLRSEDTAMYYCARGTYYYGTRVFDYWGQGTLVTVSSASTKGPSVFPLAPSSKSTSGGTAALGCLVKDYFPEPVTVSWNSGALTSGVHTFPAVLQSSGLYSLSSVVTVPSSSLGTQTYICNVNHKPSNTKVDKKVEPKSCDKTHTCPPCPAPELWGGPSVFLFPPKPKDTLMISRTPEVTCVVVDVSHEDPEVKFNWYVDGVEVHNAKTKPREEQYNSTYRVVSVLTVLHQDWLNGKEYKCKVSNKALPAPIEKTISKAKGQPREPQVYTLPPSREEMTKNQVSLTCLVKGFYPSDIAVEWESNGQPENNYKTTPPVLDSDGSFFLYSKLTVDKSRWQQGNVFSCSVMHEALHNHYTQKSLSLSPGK
light: DIVMTQSPATLSLSPGERATLSCRSSKSLQNVNGNTYLYWFQQKPGQSPQLLIYRMSNLNSGVPDRFSGSGSGTEFTLTISSLEPEDFAVYYCMQHLEYPITFGAGTKLEIKRTVAAPSVFIFPPSDEQLKSGTASVVCLLNNFYPREAKVQWKVDNALQSGNSQESVTEQDSKDSTYSLSSTLTLSKADYEKHKVYACEVTHQGLSSPVTKSFNRGEC
notes: HuAM4G7 IgG1 Fc variant
binding result: no binding

B5: L234W/S239D/L328Y (antibody, human IgG1, kappa)
heavy: EVQLVESGGGLVKPGGSLKLSCAASGYTFTSYVMHWVRQAPGKGLEWIGYINPYNDGTKYNEKFQGRVTISSDKSISTAYMELSSLRSEDTAMYYCARGTYYYGTRVFDYWGQGTLVTVSSASTKGPSVFPLAPSSKSTSGGTAALGCLVKDYFPEPVTVSWNSGALTSGVHTFPAVLQSSGLYSLSSVVTVPSSSLGTQTYICNVNHKPSNTKVDKKVEPKSCDKTHTCPPCPAPEWLGGPDVFLFPPKPKDTLMISRTPEVTCVVVDVSHEDPEVKFNWYVDGVEVHNAKTKPREEQYNSTYRVVSVLTVLHQDWLNGKEYKCKVSNKAYPAPIEKTISKAKGQPREPQVYTLPPSREEMTKNQVSLTCLVKGFYPSDIAVEWESNGQPENNYKTTPPVLDSDGSFFLYSKLTVDKSRWQQGNVFSCSVMHEALHNHYTQKSLSLSPGK
light: DIVMTQSPATLSLSPGERATLSCRSSKSLQNVNGNTYLYWFQQKPGQSPQLLIYRMSNLNSGVPDRFSGSGSGTEFTLTISSLEPEDFAVYYCMQHLEYPITFGAGTKLEIKRTVAAPSVFIFPPSDEQLKSGTASVVCLLNNFYPREAKVQWKVDNALQSGNSQESVTEQDSKDSTYSLSSTLTLSKADYEKHKVYACEVTHQGLSSPVTKSFNRGEC
notes: HuAM4G7 IgG1 Fc variant
Fold FcγRIIb: 32.8 fold

B6: L235D/S239D (antibody, human IgG1, kappa)
heavy: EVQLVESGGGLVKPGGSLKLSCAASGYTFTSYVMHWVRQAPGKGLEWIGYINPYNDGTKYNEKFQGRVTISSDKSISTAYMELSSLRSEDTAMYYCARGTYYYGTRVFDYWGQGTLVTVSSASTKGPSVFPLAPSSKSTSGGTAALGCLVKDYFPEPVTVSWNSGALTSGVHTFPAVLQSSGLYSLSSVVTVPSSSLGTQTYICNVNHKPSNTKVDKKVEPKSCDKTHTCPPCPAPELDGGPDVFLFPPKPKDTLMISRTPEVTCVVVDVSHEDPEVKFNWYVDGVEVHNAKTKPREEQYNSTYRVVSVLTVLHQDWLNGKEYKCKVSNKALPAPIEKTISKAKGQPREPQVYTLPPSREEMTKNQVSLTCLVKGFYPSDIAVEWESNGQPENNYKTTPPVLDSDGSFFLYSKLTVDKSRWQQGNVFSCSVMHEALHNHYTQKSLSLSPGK
light: DIVMTQSPATLSLSPGERATLSCRSSKSLQNVNGNTYLYWFQQKPGQSPQLLIYRMSNLNSGVPDRFSGSGSGTEFTLTISSLEPEDFAVYYCMQHLEYPITFGAGTKLEIKRTVAAPSVFIFPPSDEQLKSGTASVVCLLNNFYPREAKVQWKVDNALQSGNSQESVTEQDSKDSTYSLSSTLTLSKADYEKHKVYACEVTHQGLSSPVTKSFNRGEC
notes: HuAM4G7 IgG1 Fc variant
Fold FcγRIIb: 4.11 fold

B7: L328E (antibody, human IgG1, kappa)
heavy: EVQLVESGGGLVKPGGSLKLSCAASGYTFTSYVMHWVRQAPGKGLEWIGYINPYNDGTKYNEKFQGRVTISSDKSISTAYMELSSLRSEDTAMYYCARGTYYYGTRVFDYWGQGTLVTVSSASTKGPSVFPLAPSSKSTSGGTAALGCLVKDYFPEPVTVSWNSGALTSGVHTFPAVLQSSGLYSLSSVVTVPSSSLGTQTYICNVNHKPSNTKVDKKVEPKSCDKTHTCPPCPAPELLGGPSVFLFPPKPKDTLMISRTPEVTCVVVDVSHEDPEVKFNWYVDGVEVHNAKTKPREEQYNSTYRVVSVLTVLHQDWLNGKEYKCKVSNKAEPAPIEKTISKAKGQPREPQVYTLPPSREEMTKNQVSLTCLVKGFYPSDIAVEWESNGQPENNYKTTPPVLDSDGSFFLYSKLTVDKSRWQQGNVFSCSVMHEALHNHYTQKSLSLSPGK
light: DIVMTQSPATLSLSPGERATLSCRSSKSLQNVNGNTYLYWFQQKPGQSPQLLIYRMSNLNSGVPDRFSGSGSGTEFTLTISSLEPEDFAVYYCMQHLEYPITFGAGTKLEIKRTVAAPSVFIFPPSDEQLKSGTASVVCLLNNFYPREAKVQWKVDNALQSGNSQESVTEQDSKDSTYSLSSTLTLSKADYEKHKVYACEVTHQGLSSPVTKSFNRGEC
notes: HuAM4G7 IgG1 Fc variant
binding result: no binding

B8: L235F/S239D/L328Y (antibody, human IgG1, kappa)
heavy: EVQLVESGGGLVKPGGSLKLSCAASGYTFTSYVMHWVRQAPGKGLEWIGYINPYNDGTKYNEKFQGRVTISSDKSISTAYMELSSLRSEDTAMYYCARGTYYYGTRVFDYWGQGTLVTVSSASTKGPSVFPLAPSSKSTSGGTAALGCLVKDYFPEPVTVSWNSGALTSGVHTFPAVLQSSGLYSLSSVVTVPSSSLGTQTYICNVNHKPSNTKVDKKVEPKSCDKTHTCPPCPAPELFGGPDVFLFPPKPKDTLMISRTPEVTCVVVDVSHEDPEVKFNWYVDGVEVHNAKTKPREEQYNSTYRVVSVLTVLHQDWLNGKEYKCKVSNKAYPAPIEKTISKAKGQPREPQVYTLPPSREEMTKNQVSLTCLVKGFYPSDIAVEWESNGQPENNYKTTPPVLDSDGSFFLYSKLTVDKSRWQQGNVFSCSVMHEALHNHYTQKSLSLSPGK
light: DIVMTQSPATLSLSPGERATLSCRSSKSLQNVNGNTYLYWFQQKPGQSPQLLIYRMSNLNSGVPDRFSGSGSGTEFTLTISSLEPEDFAVYYCMQHLEYPITFGAGTKLEIKRTVAAPSVFIFPPSDEQLKSGTASVVCLLNNFYPREAKVQWKVDNALQSGNSQESVTEQDSKDSTYSLSSTLTLSKADYEKHKVYACEVTHQGLSSPVTKSFNRGEC
notes: HuAM4G7 IgG1 Fc variant
Fold FcγRIIb: 6.82 fold

B9: L234W/L328Y/I332E (antibody, human IgG1, kappa)
heavy: EVQLVESGGGLVKPGGSLKLSCAASGYTFTSYVMHWVRQAPGKGLEWIGYINPYNDGTKYNEKFQGRVTISSDKSISTAYMELSSLRSEDTAMYYCARGTYYYGTRVFDYWGQGTLVTVSSASTKGPSVFPLAPSSKSTSGGTAALGCLVKDYFPEPVTVSWNSGALTSGVHTFPAVLQSSGLYSLSSVVTVPSSSLGTQTYICNVNHKPSNTKVDKKVEPKSCDKTHTCPPCPAPEWLGGPSVFLFPPKPKDTLMISRTPEVTCVVVDVSHEDPEVKFNWYVDGVEVHNAKTKPREEQYNSTYRVVSVLTVLHQDWLNGKEYKCKVSNKAYPAPEEKTISKAKGQPREPQVYTLPPSREEMTKNQVSLTCLVKGFYPSDIAVEWESNGQPENNYKTTPPVLDSDGSFFLYSKLTVDKSRWQQGNVFSCSVMHEALHNHYTQKSLSLSPGK
light: DIVMTQSPATLSLSPGERATLSCRSSKSLQNVNGNTYLYWFQQKPGQSPQLLIYRMSNLNSGVPDRFSGSGSGTEFTLTISSLEPEDFAVYYCMQHLEYPITFGAGTKLEIKRTVAAPSVFIFPPSDEQLKSGTASVVCLLNNFYPREAKVQWKVDNALQSGNSQESVTEQDSKDSTYSLSSTLTLSKADYEKHKVYACEVTHQGLSSPVTKSFNRGEC
notes: HuAM4G7 IgG1 Fc variant
Fold FcγRIIb: 6.32 fold

B10: L235F/H268D/L328Y (antibody, human IgG1, kappa)
heavy: EVQLVESGGGLVKPGGSLKLSCAASGYTFTSYVMHWVRQAPGKGLEWIGYINPYNDGTKYNEKFQGRVTISSDKSISTAYMELSSLRSEDTAMYYCARGTYYYGTRVFDYWGQGTLVTVSSASTKGPSVFPLAPSSKSTSGGTAALGCLVKDYFPEPVTVSWNSGALTSGVHTFPAVLQSSGLYSLSSVVTVPSSSLGTQTYICNVNHKPSNTKVDKKVEPKSCDKTHTCPPCPAPELFGGPSVFLFPPKPKDTLMISRTPEVTCVVVDVSDEDPEVKFNWYVDGVEVHNAKTKPREEQYNSTYRVVSVLTVLHQDWLNGKEYKCKVSNKAYPAPIEKTISKAKGQPREPQVYTLPPSREEMTKNQVSLTCLVKGFYPSDIAVEWESNGQPENNYKTTPPVLDSDGSFFLYSKLTVDKSRWQQGNVFSCSVMHEALHNHYTQKSLSLSPGK
light: DIVMTQSPATLSLSPGERATLSCRSSKSLQNVNGNTYLYWFQQKPGQSPQLLIYRMSNLNSGVPDRFSGSGSGTEFTLTISSLEPEDFAVYYCMQHLEYPITFGAGTKLEIKRTVAAPSVFIFPPSDEQLKSGTASVVCLLNNFYPREAKVQWKVDNALQSGNSQESVTEQDSKDSTYSLSSTLTLSKADYEKHKVYACEVTHQGLSSPVTKSFNRGEC
notes: HuAM4G7 IgG1 Fc variant
Fold FcγRIIb: 3.97 fold

B11: L235Y/S267D (antibody, human IgG1, kappa)
heavy: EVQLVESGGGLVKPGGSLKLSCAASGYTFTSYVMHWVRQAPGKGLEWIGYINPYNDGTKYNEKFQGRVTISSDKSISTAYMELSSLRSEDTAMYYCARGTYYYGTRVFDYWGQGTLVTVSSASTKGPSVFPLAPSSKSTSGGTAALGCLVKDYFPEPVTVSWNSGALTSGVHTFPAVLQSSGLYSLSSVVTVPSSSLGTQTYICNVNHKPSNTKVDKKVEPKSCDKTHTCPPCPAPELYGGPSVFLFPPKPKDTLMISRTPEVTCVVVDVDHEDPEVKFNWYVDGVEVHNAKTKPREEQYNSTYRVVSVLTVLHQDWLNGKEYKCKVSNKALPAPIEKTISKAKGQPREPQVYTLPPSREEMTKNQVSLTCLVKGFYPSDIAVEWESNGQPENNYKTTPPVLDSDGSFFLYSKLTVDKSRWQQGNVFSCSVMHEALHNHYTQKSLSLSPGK
light: DIVMTQSPATLSLSPGERATLSCRSSKSLQNVNGNTYLYWFQQKPGQSPQLLIYRMSNLNSGVPDRFSGSGSGTEFTLTISSLEPEDFAVYYCMQHLEYPITFGAGTKLEIKRTVAAPSVFIFPPSDEQLKSGTASVVCLLNNFYPREAKVQWKVDNALQSGNSQESVTEQDSKDSTYSLSSTLTLSKADYEKHKVYACEVTHQGLSSPVTKSFNRGEC
notes: HuAM4G7 IgG1 Fc variant
Fold FcγRIIb: 15.9 fold
